Measurements: patent US20240269318A1

Columns and labels:
Settings in all cases: remark: other sources report otherwise
[1] = target: T1, recombinant human alpha-synuclein aggregates (ab218819) (human), P37840; test: ELISA on AS aggregates; antibody pre-heated 1 hr at 65 °C, measured immediately
[2] = target: T1, recombinant human alpha-synuclein …; test: ELISA on AS aggregates; antibody pre-heated 1 hr at 65 °C, stored overnight at 4 °C, measured the next day
[3] = target: T1, recombinant human alpha-synuclein …; test: super-resolution imaging in differentiated SH-SY5Y cells loaded with AS aggregates; SynO4 delivered by TF-liposomes
[4] = target: T1, recombinant human alpha-synuclein …; test: super-resolution microscopy; Cy3-SynO4 and Alexa Fluor 488-AS aggregates in differentiated SH-SY5Y cells

B1: SynO4 antibody (Creative Biolabs, USA) (antibody)
chain 1: EVQLVESGGGLVQPKGSLKLSCAASGFTFNTYAMHWVRQAPGKGLEWVARIRSKSSNYATYYADSVKDRFTISRDDSQSMLYLQMNNLKTEDTAMYYCVRPLKWYFDVWGTGTTVTVSS
chain 2: QIVLTQSPAILSASPGEKVTMTCSASSTVNYMHWYQQKSGTSPKIWIYDTSKLASGVPARFSGSGSWTSYSLTISSMEAEDAATYYCQQWNSNPPTFGAGTKLELK
For B1, the maximal activity [1] was 22%, the maximal activity [2] was 44% and the detection between antibody and aggregates [3] was > 80%. The colocalization [4] was 75%.
